Article PMC4609182 (2015)

T1: Parkin R0RBR module (RING0, RING1, IBR, RING2), wild type (rat, UniProt Q9JK66 141-465)
T1 chain: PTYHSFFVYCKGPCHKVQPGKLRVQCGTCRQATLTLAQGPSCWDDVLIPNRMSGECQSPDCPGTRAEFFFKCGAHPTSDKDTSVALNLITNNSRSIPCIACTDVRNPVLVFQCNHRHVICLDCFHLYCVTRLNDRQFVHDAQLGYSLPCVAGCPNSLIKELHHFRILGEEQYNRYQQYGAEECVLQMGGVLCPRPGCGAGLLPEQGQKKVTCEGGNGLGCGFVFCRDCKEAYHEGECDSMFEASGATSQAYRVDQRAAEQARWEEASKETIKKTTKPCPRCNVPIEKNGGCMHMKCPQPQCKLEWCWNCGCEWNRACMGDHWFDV

B1: Parkin Ubl domain (ubiquitin-like domain), unmodified (domain or fragment)
chain: MIVFVRFNSSYGFPVEVDSDTSIFQLKEVVAKRQGVPADQLRVIFAGKELQNHLTVQNCDLEQQSIVHIVQRPQRK
B2: Parkin R0RBR module (RING0, RING1, IBR, RING2), wild type (domain or fragment)
chain: T1 chain
modifications: unmodified (non-phosphorylated) ubiquitin; only the figure label 'Ub' is given, so wild type is assumed (the non-phosphorylatable control in Fig EV3B is a separate His-tagged UbS65A)

How the values were obtained:
[1] = target: T1, Parkin R0RBR module (RING0, RING1, IBR, …); experiment: ITC
[2] = target: Ub (Homo sapiens); experiment: ITC

Binder	Kd [1]	Kd [2]
B1	14 µM	
B2		41 µM
